Data reported in article PMC2924388.
pKd: −log10 of the molar value.

What was measured:
[1] = target: HIV-1 M-type (NL4.3) capsid N-terminal domain (HIV-1 M-type (NL4.3)) (UniProt P12493)
[2] = target: HIV-2 (ROD) capsid N-terminal domain (HIV-2 (ROD))
[3] = target: HIV-1 M-type (NL4.3) capsid N-terminal domain (HIV-1 M-type (NL4.3)) (UniProt P12493); experiment: ITC; MicroCal ITC200; cyclophilin (typical concentration 1.4 mM) in the syringe, capsid (typical concentration 120 µM) in the cell; 50 mM KPO4 pH 7.4, 100 mM NaCl, 1 mM DTT; 15°C; one-state model
[4] = target: HIV-2 capsid N-terminal domain with an alanine inserted at position 88 (HIV-2 (ROD)); experiment: as above
[5] = target: HIV-2 (ROD) capsid N-terminal domain (HIV-2 (ROD)); experiment: as above

Substance | restriction of the infectivity of the HIV-1 vector in CRFK cells expressing whole Mafa TRIMCyp2 Cyp K143E; partially rescued by 5 µM cyclosporine (orders of magnitude) [1] | restriction of the infectivity of the HIV-2 vector in CRFK cells expressing whole Mafa TRIMCyp2 Cyp K143E; completely rescued by 5 µM cyclosporine (orders of magnitude) [2] | pKd [3] | pKd [4] | pKd [5]
CypA domain of Mafa TRIMCyp2 with Cyp K143E (K446E in TRIMCyp) (domain or fragment) | 2 | 2 | 4.92 | 5.05 | 4.89
CypA domain of Macaca fascicularis TRIMCyp2 (Mafa TRIMCyp2) (domain or fragment) | – | – | 4.92 | 3.68 | –
